Experimental data: patent US8926955B2, “Synthesis of polymer conjugates of indolocarbazole compounds” (priority 2008, dated 2015)

Tests used:
Sprague Dawley rats = assay: 13 week dermal toxicity study in rats with 4 week recovery
Method: The purpose of this study was to evaluate the toxicity of the test item in rats after daily dermal administration (6 hours exposure) over a period of 13 weeks and to investigate possible recovery from any potential treatment-related effects over a period of 4 consecutive weeks.
Three groups, each of 10 male and 10 female Sprague Dawley rats (cf. Table 1: male numbered with even numbers, female numbered with uneven numbers) received the test item by dermal application at dosages of 0.5, 2.5 and 5 mg/kg/day for 13 consecutive weeks (Table 1: group numbers 2-4). A fourth similarly constituted group received the vehicle alone (purified water) and acted as a control (Table 1: group number 1). Five additional animals for each sex were included in the high and control groups (Table 1: group numbers 4 and 1, respectively) for recovery assessment.
The treatment sites were examined each day, approximately 3 hours after the start of dosing. Irritation of the sites, when compared to the adjacent untreated skin, was assigned a numerical value according to the table below:

rat = assay: Acute dermal toxicity study in rats; assay type: in vivo
Method: The acute toxicity of the conjugate of Example 3 was investigated following administration of a single dermal dose to the rat.
A single dose of 2000 mg/kg was administered to a group of 5 male and 5 female animals for a 24 hour period. The day before scheduled dosing the fur was removed from the dorsal surfaces of the trunk over an estimated area of 10% of the total body surface. Care was taken to avoid any damage or abrasion to the skin. The test item was administered topically at a dose volume of 4 ml/kg body weight, just after its preparation. The required aliquot of the formulated test item was spread evenly over a gauze measuring 2.5×2.5 cm. The gauze patch was then placed onto the animal's skin, with the test item in direct contact with the skin. A strip of synthetic film was placed over the treated site and the whole assembly held in place by encircling the trunk of the animal with a length of elastic adhesive bandage. After a period of 24 hours, the tape dressing will be removed. The treated skin site was then gently washed free of any remaining test item using lukewarm water. Throughout the study, all animals will be checked twice daily. Animals were examined for signs of reaction to treatment on dosing, approximately 30 min, 2 and 4 hours after dosing on day 1, then daily for a total of 14 days. Each animal was weighed on the day of allocation to the study, on the day of dosing (day 1) and on days 8 and 15. After a 14 day period all animals were killed and subjected to a necropsy examination.

[1] = 0.5, 2.5 and 5 mg/kg/day dermal, 13 weeks

Substance: oxazolidindionic conjugate of K252a with PEG (1892 MW) [test item]
- adverse effects (Sprague Dawley rats; 0.5, 2.5 and 5 mg/kg/day): No adverse effects were seen at any of the dose levels
- body weight (Sprague Dawley rats; [1]): No relevant differences in body weight were recorded
- clinical signs (Sprague Dawley rats; [1]): no treatment-related clinical signs were observed
- food consumption (Sprague Dawley rats; [1]): comparable to controls
- mortality (Sprague Dawley rats; [1]): No treatment-related mortality occurred
- absolute and relative organ weights (Sprague Dawley rats; 13 weeks dermal): No changes in absolute and relative organ weights of toxicological significance were observed
- clinical chemistry and urinalysis (Sprague Dawley rats; 13 weeks dermal): No changes of toxicological significance were observed
- macroscopic and microscopic observations (Sprague Dawley rats; 13 weeks dermal): No treatment-related changes were noted
- terminal body weight (Sprague Dawley rats; 13 weeks dermal): comparable between control and treated groups
- No Observed Adverse Effect Level (NOAEL) (Sprague Dawley rats; daily dermal administration to rats, 13 weeks): 5 mg/kg/day
- ophthalmic examination (Sprague Dawley rats; end of the treatment period): No treatment-related lesions were detected
- irritation index at treated sites (Sprague Dawley rats; erythema/oedema score 0-4, daily dermal, 13 weeks): 0
- haematology (Sprague Dawley rats; partial reversibility at end of recovery period): leucopenia observed in animals of high dose group and in females of medium dose group
- abnormalities in the treated site (rat; 2000 mg/kg single dermal dose): No abnormalities were observed in the treated site
- clinical signs (rat; 2000 mg/kg single dermal dose): no clinical signs were observed
- internal abnormalities at necropsy (rat; 2000 mg/kg single dermal dose): No internal abnormalities were found at necropsy
- mortality (rat; 2000 mg/kg single dermal dose, 14 day observation): No mortality occurred
- changes in body weight (rat; 2000 mg/kg single dermal dose, end of study): within the expected range
- toxic effect (rat; dermal exposure over 24 hours at 2000 mg/kg): no toxic effect
- LD50 (rat; single dermal dose, 24 hour exposure, rat): greater than 2000 mg/kg
